Experiments:
[1] = target: T1, Thermus thermophilus SlyD-IGF-1(74-90) fusion polypeptide; assay: ELISA, clone culture supernatant
T1 construct: also called Thermo Thermophilus SlyD-IGF-1 fusion polypeptide; Thermus thermophilus-IGF-1 fusion polypeptide
T1 chain: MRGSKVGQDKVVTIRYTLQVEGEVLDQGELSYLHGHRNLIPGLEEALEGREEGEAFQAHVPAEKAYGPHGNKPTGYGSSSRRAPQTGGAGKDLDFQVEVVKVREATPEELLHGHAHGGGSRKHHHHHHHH

[2] = target: T1, Thermus thermophilus SlyD-IGF-1(74-90) …; assay: SPR at 25 °C, mAb captured, antigen as analyte
[3] = target: T2, native recombinant human IGF-1 (human, UniProt P05019 49-118); assay: SPR at 37 °C, clone culture supernatant antibody captured
T2 construct: In the ELISAs it was biotinylated and held on streptavidin plates; also called native IGF-1; native human IGF-1 (Peprotech)

[4] = target: T1, Thermus thermophilus SlyD-IGF-1(74-90) …; assay: as above
[5] = target: T2, native recombinant human IGF-1; assay: SPR kinetics at 37 °C, clone culture supernatant, IGF-1 as analyte

B1: <IGF-1>M-11.11.17 (antibody, V domains shown)
VH: QVQLQQSGAELVRPGSSVKISCKASGYAFSNLWMNWVKQRPGQGLEWIGQIYPGDGDTNYYGDFKGKATLTADSSSSTAYMQLSRLTSEDSAVYFCARIGYYGMDYWGQGTSVTVSS
VL: DVVLTQTPLSLPVNIGDEASISCKSTKSLLSSDGLTYLDWYLQKPGQSPQVLIYLVSNRFSGVPDRFSGSGSGTDFTLKISRVEAEDLGVYYCFQSNYLPTFGAGTKLELK
Which results are given for B1?
reactivity [1]: 2150 mE; Kd [2]: 0.01 nM; koff [2]: 1e-05 s⁻¹; kon [2]: 710000 M⁻¹ s⁻¹; koff [3]: 1e-05 s⁻¹; koff [4]: 1e-05 s⁻¹; Ka [5]: 2.2e+10 M⁻¹; Kd [5]: 0.046 nM; koff [5]: 0.00014 s⁻¹; kon [5]: 3.1e+06 M⁻¹ s⁻¹

Source: patent US20160138004A1 (Hoffmann-La Roche, published 2016)
